These results are taken from publication PMC8989681, “Functional and structural deficiencies of Gemin5 variants associated with neurological disorders” (Life Science Alliance, 2022).

Changes are numbered by the printed parent chain.

Test [1] has as its target T1, G5_(845-1508)-R1016C-TAP (human, UniProt Q8TEQ6 845-1508, R1016C).
T1 construct: Vector pcDNA3-CTAP; source: HEK293, transfected, in soluble cell extract; purified by TAP
T1 sequence (looked up): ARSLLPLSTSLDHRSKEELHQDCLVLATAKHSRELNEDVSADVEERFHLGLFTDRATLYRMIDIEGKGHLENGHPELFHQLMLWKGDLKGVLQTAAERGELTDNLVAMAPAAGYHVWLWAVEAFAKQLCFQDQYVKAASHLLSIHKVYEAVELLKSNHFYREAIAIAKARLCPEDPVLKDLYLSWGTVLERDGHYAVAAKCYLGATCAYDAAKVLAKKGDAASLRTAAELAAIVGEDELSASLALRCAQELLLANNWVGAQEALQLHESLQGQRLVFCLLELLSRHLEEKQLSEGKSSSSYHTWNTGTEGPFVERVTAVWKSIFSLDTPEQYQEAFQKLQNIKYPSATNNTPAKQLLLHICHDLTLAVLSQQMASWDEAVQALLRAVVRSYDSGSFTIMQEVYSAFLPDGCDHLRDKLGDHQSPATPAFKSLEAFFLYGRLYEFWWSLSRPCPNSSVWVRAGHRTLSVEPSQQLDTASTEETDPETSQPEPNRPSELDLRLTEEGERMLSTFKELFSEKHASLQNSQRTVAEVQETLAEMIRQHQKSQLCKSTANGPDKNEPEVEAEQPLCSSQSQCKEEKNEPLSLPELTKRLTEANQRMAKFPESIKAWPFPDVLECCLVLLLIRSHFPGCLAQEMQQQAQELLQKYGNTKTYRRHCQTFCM
Briefly: co-IP; G5_(845-1508)-TAP baits expressed 24 h in HEK293; complexes purified by TAP (IgG Sepharose, TEV protease, calmodulin); endogenous Gemin5 and bait detected by WB with anti-Gemin5; Gemin5 intensity normalised to the purified bait. The settings on record: partners not purified.

Test [2] addresses T2, G5_(845-1508)-D1019E-TAP (human, UniProt Q8TEQ6 845-1508, D1019E).
T2 construct: Vector pcDNA3-CTAP; source: HEK293, transfected, in soluble cell extract; purified by TAP
T2 sequence (looked up): T1 sequence (looked up) with C172R, D175E
Described as above. The conditions noted are these: partners not purified.

Test [3] deals with T3, G5_(845-1508)-A951E-TAP (human), Q8TEQ6.
T3 chain: T1 sequence (looked up) with A107E, C172R
Described as above. The settings on record: remark: other sources report otherwise.

The next test addresses T4, G5_(845-1508)-L1367P-TAP (human, UniProt Q8TEQ6 845-1508, L1367P).
T4 construct: Vector pcDNA3-CTAP; Expressed at lower levels than the WT; also called RBS1 variant L1367P; source: HEK293, transfected, in soluble cell extract; purified by TAP
T4 sequence (looked up): T1 sequence (looked up) with C172R, L523P
The test can be described thus: affinity purification with mass spectrometry; G5_(845-1508)-TAP baits expressed in HEK293; TAP purification, in-gel trypsin digestion, LC-MS/MS, PEAKS; two biological replicates; at least two distinct peptides. The settings on record: partners not purified.

Test [4] concerns the target T1, G5_(845-1508)-R1016C-TAP. Described as above. The conditions noted are these: partners not purified.
In test [5] the target is T2, G5_(845-1508)-D1019E-TAP. The description is as above. The settings on record: partners not purified.

B1: endogenous Gemin5 protein (natural protein, human (endogenous in HEK293), UniProt Q8TEQ6 1-1508, looked up)
chain: MGQEPRTLPPSPNWYCARCSDAVPGGLFGFAARTSVFLVRVGPGAGESPGTPPFRVIGELVGHTERVSGFTFSHHPGQYNLCATSSDDGTVKIWDVETKTVVTEHALHQHTISTLHWSPRVKDLIVSGDEKGVVFCYWFNRNDSQHLFIEPRTIFCLTCSPHHEDLVAIGYKDGIVVIIDISKKGEVIHRLRGHDDEIHSIAWCPLPGEDCLSINQEETSEEAEITNGNAVAQAPVTKGCYLATGSKDQTIRIWSCSRGRGVMILKLPFLKRRGGGIDPTVKERLWLTLHWPSNQPTQLVSSCFGGELLQWDLTQSWRRKYTLFSASSEGQNHSRIVFNLCPLQTEDDKQLLLSTSMDRDVKCWDIATLECSWTLPSLGGFAYSLAFSSVDIGSLAIGVGDGMIRVWNTLSIKNNYDVKNFWQGVKSKVTALCWHPTKEGCLAFGTDDGKVGLYDTYSNKPPQISSTYHKKTVYTLAWGPPVPPMSLGGEGDRPSLALYSCGGEGIVLQHNPWKLSGEAFDINKLIRDTNSIKYKLPVHTEISWKADGKIMALGNEDGSIEIFQIPNLKLICTIQQHHKLVNTISWHHEHGSQPELSYLMASGSNNAVIYVHNLKTVIESSPESPVTITEPYRTLSGHTAKITSVAWSPHHDGRLVSASYDGTAQVWDALREEPLCNFRGHRGRLLCVAWSPLDPDCIYSGADDFCVHKWLTSMQDHSRPPQGKKSIELEKKRLSQPKAKPKKKKKPTLRTPVKLESIDGNEEESMKENSGPVENGVSDQEGEEQAREPELPCGLAPAVSREPVICTPVSSGFEKSKVTINNKVILLKKEPPKEKPETLIKKRKARSLLPLSTSLDHRSKEELHQDCLVLATAKHSRELNEDVSADVEERFHLGLFTDRATLYRMIDIEGKGHLENGHPELFHQLMLWKGDLKGVLQTAAERGELTDNLVAMAPAAGYHVWLWAVEAFAKQLCFQDQYVKAASHLLSIHKVYEAVELLKSNHFYREAIAIAKARLRPEDPVLKDLYLSWGTVLERDGHYAVAAKCYLGATCAYDAAKVLAKKGDAASLRTAAELAAIVGEDELSASLALRCAQELLLANNWVGAQEALQLHESLQGQRLVFCLLELLSRHLEEKQLSEGKSSSSYHTWNTGTEGPFVERVTAVWKSIFSLDTPEQYQEAFQKLQNIKYPSATNNTPAKQLLLHICHDLTLAVLSQQMASWDEAVQALLRAVVRSYDSGSFTIMQEVYSAFLPDGCDHLRDKLGDHQSPATPAFKSLEAFFLYGRLYEFWWSLSRPCPNSSVWVRAGHRTLSVEPSQQLDTASTEETDPETSQPEPNRPSELDLRLTEEGERMLSTFKELFSEKHASLQNSQRTVAEVQETLAEMIRQHQKSQLCKSTANGPDKNEPEVEAEQPLCSSQSQCKEEKNEPLSLPELTKRLTEANQRMAKFPESIKAWPFPDVLECCLVLLLIRSHFPGCLAQEMQQQAQELLQKYGNTKTYRRHCQTFCM
notes: Gemin5, human, full-length endogenous protein of HEK293 cells; also called full-length Gemin5; source: endogenous, HEK293 soluble cell extract
As to B1, the “co-IP intensity relative to the WT protein” value with G5_(845-1508)-R1016C-TAP [1] stood at 58%; with G5_(845-1508)-D1019E-TAP [2], 62%. In test [3], the fold by which the recruitment by WT exceeds that by this mutant was 10 fold. For the same molecule, the “ratio of peptide reads of region 1-844 to region 845-1508, relative to G5_(845-1508)-WT” value with G5_(845-1508)-L1367P-TAP is 0.9; with G5_(845-1508)-R1016C-TAP [4], 0.77; in the test with G5_(845-1508)-D1019E-TAP [5] it was 0.56.
